Data reported in US20220242853A1, “MODIFIED CYANINE DYES AND CONJUGATES THEREOF” (BRACCO IMAGING S.P.A., priority 2019, published 2022).

Legend:
[1] = Biodistribution and elimination by optical imaging after intravenous administration; format: in vivo, Balb/c nu/nu mice; settings: male, Balb/c nu/nu, mouse, in vivo, iv
Experimental: Biodistribution and elimination of the fluorescent agents of the invention was evaluated by optical imaging after intravenous administration in male Balb/c nu/nu mice, 6-10 weeks of age (Charles River Laboratories). Briefly, mice housed 4 per cage and fed with VRF1 (P) sterile diet (Special Diets Services Ltd) up to the end of the acclimation period (5 days). Then, AIN-76a rodent diet irradiated (Research Diets), a special diet that reduces auto-fluorescence, was used up to the end of the experiments. Imaging experiments were performed using the preclinical optical system IVIS Spectrum (Perkin Elmer).
In vivo imaging was performed under gas anesthesia (Sevofluorane 6-8% in oxygen). Animals were intravenously injected with the compounds and imaged longitudinally at 30 min, 1 h, 2 h, 3 h, 4 h, 6 h, and 24 h post-administration. Thus, animals were euthanized by anesthesia overdose, and the main tissues and organs of interest were excised for ex vivo optical imaging. Regions of interest (ROIs) were drawn on the tissues of interest for each fluorescence image at every time point to evaluate signal intensity (expressed as Average adiant Efficiency). The ratio between the fluorescence signal in the muscle (background tissue) and excretory organs (kidney, liver) was then calculated to assess the contrast. The tissue half-life was calculated by fitting the fluorescence signal decay in the muscle with a bi-exponential decay equation model using GraphPad Prism Software (version 5 for Windows).

HT-29 cells = assay: Tumor uptake by optical imaging, subcutaneous human colorectal cancer model; format: in vivo, Athymic nude mice; settings: iv 1 nmol, tumor vs muscle
Experimental: Parallel experiments were performed in an animal model of human colorectal cancer (subcutaneous), using HT-29 cells, expressing low levels of integrin receptors. Briefly, the human colorectal adenocarcinoma cells HT-29 (ATCC, HTB-38) were cultured in McCoy's 5A medium supplemented with 10% foetal bovine serum, 2 mM glutamine, 100 IU/mL penicillin and 100 μg/mL streptomycin. Male Athymic nude mice, 4-6 weeks of age (Envigo), underwent subcutaneous implantation (right flank) of about 5 million cells suspended in 0.1 mL of serum-free medium. Mice were housed 4 per cage with food and water ad libitum. […] Then, AIN-76a rodent diet irradiated (Research Diets), a special diet that reduces auto-fluorescence, was used up to the end of the experiments. Tumor growth was monitored by longitudinal assessments using a caliper up to the target size of 300-600 mm^3 (3-4 weeks after cell implantation). […]
(§1) In vivo imaging was performed under gas anesthesia (Sevofluorane 6-8% in oxygen). […] Regions of interest (ROIs) were drawn on the tissues of interest for each fluorescence image at every time point to evaluate signal intensity (expressed as Average Radiant Efficiency). The ratio between the fluorescence signal in the tumor and in the muscle (background tissue) was then calculated to assess the contrast.

[2] = Optical properties: excitation/emission maxima and absolute fluorescence quantum yield; format: physicochemical
Experimental: Analysis were performed with a Waters Atlantis dC18 5 μm, 4.6×150 mm column using a gradient of phase A CH3COONH4 10 mM and phase B acetonitrile. Measured mass/charge ratios are listed for each compound. A dual-beam UV-VIS spectrophotometer (Lambda 40, Perkin Elmer) was used to determine the absorbance (Abs) of the compounds of the invention. […] The measurements were performed using an excitation wavelength at maximum absorbance of different dyes, and the sample was excited with a […] Xenon Light Source. Detection was performed by photomultiplier tubes (PMT-NIR) cooled detector or by TBX-04 detector. Dye solutions were carefully prepared to have an absorbance lower than 0.1 (optical densities) to minimize re-absorption phenomena. The compounds of the invention have been characterized in terms of their optical properties in vitro in aqueous medium (i.e., water/PBS pH 7.4) and in a clinical chemistry control serum (Seronorm, Sero SA), mimicking the chemical composition and optical properties of human serum. All dye or dye-conjugate solutions were freshly prepared.

U87MG cells = assay: Tumor uptake by optical imaging, subcutaneous human glioblastoma model; format: in vivo, Balb/c nu/nu mice; settings: iv 1 nmol, 1-2 hours after administration, tumor vs muscle
Experimental: Tumor uptake experiments were carried out in an animal model of human glioblastoma (subcutanous) overexpressing the integrin receptors, particularly αvβ3. Briefly, human glioblastoma U87MG cells (ATCC, HTB-14) were cultured in Eagle's Minimum Essential Medium (EMEM) supplemented with 10% Fetal Bovine Serum (FBS), 2 mM glutamine, 100 IU/mL penicillin, 100 μg/mL streptomycin. Male Balb/c nu/nu mice, 4-6 weeks of age (Charles River Laboratories), underwent subcutaneous implantation (right flank) of about 10 million cells suspended in 0.1 mL of EMEM. Mice were housed 4 per cage with food and water ad libitum. […] Then, AIN-76a rodent diet irradiated (Research Diets), a special diet that reduces auto-fluorescence, was used up to the end of the experiments. Tumor growth was monitored by longitudinal assessments using a caliper up to the target size of 300-600 mm^3 (3-4 weeks after cell implantation). […]
as §1

For `CC(CC[N+]1=C(/C=C/C=C/C=C/C=C2/N(CCCCCC(=O)NCCCC[C@@H]3NC(=O)C(Cc4ccccc4)NC(=O)[C@H](CC(=O)O)NC(=O)CNC(=O)[C@H](CCCNC(=N)N)NC3=O)c3ccc(C(=O)NCC(O)C(O)C(O)C(O)CO)cc3C2(C)C)C(C)(C)c2cc(C(=O)NCC(O)C(O)C(O)C(O)CO)ccc21)S(=O)(=O)[O-]` (stereo partly shown) [Compound 1], the half-life [1] was less than 1 h, the “Tumor-to-background ratio (TBR)” value (HT-29 cells) was 1.2-1.5 and the “Max Em” value ([2]; PBS pH 7.4) was 786 nm. The “Max Ex” value ([2]; PBS pH 7.4) was 757 nm, the “Φ (absolute fluorescence quantum yield)” value ([2]; PBS pH 7.4) was 9.8% and the “Φ (absolute fluorescence quantum yield)” value ([2]; Seronorm control serum) was 13.0%. For the same compound, the “Tumor-to-background ratio (TBR)” value (U87MG cells) was 2-2.5.
